Test [1] concerns the target T1, HIV-1 MN gp41 recombinant protein produced in E. coli (565-771Delta642-725) (HIV-1 MN).
T1 construct: range 565-771; Residues 642-725 are deleted; also called MN gp41 (produced in E. coli); MN gp41 protein
The test is described as follows: ELISA, hybridoma supernatant 1/10, coated MN gp41. (In an ELISA, binding on a coated surface is turned into a signal by an enzyme label.)

For test [2], the target named is T1, HIV-1 MN gp41 recombinant protein …. The test can be described thus: ELISA, hybridoma supernatant pure, coated MN gp41.
Test [3] has as its target T2, BSA-PEP3 peptide (HIV-1 MN strain, also: conjugated to BSA).
T2 construct: The KLH immunogen carried an added N-terminal Cys
T2 peptide: PWNASWSNKSLDDIW
The test is described as follows: ELISA, hybridoma supernatant 1/10, coated BSA-PEP3.

Test [4] addresses T2, BSA-PEP3 peptide. The test is described as follows: ELISA, hybridoma supernatant pure, coated BSA-PEP3.
The target of test [5] is T3, HXB2 gp41 recombinant protein (a.a. 534-681) (HIV-1 HXB2, UniProt P04578 534-681).
T3 construct: Bought; tags not described; also called ABIN1605865
The test is described as follows: sandwich ELISA, mAb capture, gp41 titrated, biotinylated goat pAb detection.

The target of test [6] is T3, HXB2 gp41 recombinant protein (a.a. …). The test is described as follows: sandwich ELISA, 72D7 capture 10 µg/ml, HXB2 gp41 titrated, biotinylated 4G1 detection 20 µg/ml.

Ends that are not written are not given here.

B1: anti-PEP3 mAb 5E12 (antibody, V domains shown)
VH: QIQLVQSGPELKKPGETVKISCKASGYTFRTYGMSWVKQAPGKGLKWMGWINTYSGVPRYVDDFKGRFALSLETSASTAYLQINNLKSEDTATYFCVREGYSYYGSSFHTMDYWGQGTSVTVSS
VL: DIQMTQTPLTLSVTIGHPASISCKSSQSLLHTNGKIYLNWLLQRPGQSPKRLIYLVSKLDSGVPDRFSGSGSGTDFTLKISRVEAEDLGVYYCLQSTHFPQTFGGGTKLEIK
As for B1, the ELISA screening signal in test [1] is 2.71; in test [2] it was 2.61; in test [3], 3.21; in test [4], 3.

B2: anti-PEP3 gp41 mAb 4G1 (antibody, V domains shown)
VL: DVVMTQTPLSLCVSLGDQASISCRTSQSIVHSNRYTYLEWYLQKPGQPLKLLIYGIANRFSGVPDRFSGSGSGTDFTLKISRVEAEDMGVYYCLQGTHVPFTFGSGTKLEIK
V domain: QVQLQQPGAELVKPGASVKLSCKASGYIFRNYWMHWVKQRPGQGLEWIGMIHPNSDITHYNEKFKNRATLTVDKSSSTAYMQLNSLTSEDSAVYYCARGGLGVFDYWGQGTALRVSS
notes: Also used biotinylated (4G1-biot) as detection antibody; also called 4G1 anti-PEP3 mAb; 4G1 mAb
The EC50 is the midpoint of the concentration-response curve. B2: the “minimal amount of gp41 detected” value in test [5] was around 1 ng/mL. Besides, the EC50 in test [6] worked out at 0.34 µg/mL.

B3: anti-PEP3 mAb 8D5 (antibody, V domains shown)
VH: QVQLQQPGAELIEPGTSVKLSCKASGYTFTTYWMHWVKQRPGQGLEWIGMIHPNSGDTFYNENFKNKATLTVDISSSTVYMELSSLTSEDSAVYSCVKAGTGALDYWGQGTTLTVSS
VL: DVVMTQTPLSLPVSLGDQASISCRSSQSIVHSNRYTYLEWYLQRPGQSLKLLIYGVSNRFSGVPDRFSGSGSGTDFILKISRVEAEDMGVYYCFQGTHVPFTFGSGTKLEIK
Turning to B3, the ELISA screening signal in test [1] worked out at 2.55; in test [2], 2.58; in test [3], 2.69; in test [4], 2.51. Also, the “minimal amount of gp41 detected” value in test [5] was around 1 ng/mL.

B4: anti-PEP3 mAb 15B4 (antibody, V domains shown)
VH: QVQLQQSGPELVRPGTSVKISCKAPGYSFTSHWMQWLRQRPGQGLEWIGEIFPGSGKTYYNEKFKDKATLTADTSSTTVYMQFSSLTSEDSAVYFCASDYDGGDYWGQGTTLTVSS
VL: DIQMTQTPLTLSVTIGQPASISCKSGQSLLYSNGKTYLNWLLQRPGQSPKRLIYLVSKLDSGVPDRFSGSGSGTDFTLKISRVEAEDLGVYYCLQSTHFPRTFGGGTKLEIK
As to B4, the ELISA screening signal in test [1] came to 1.45; in test [2], 1.81; in test [3] it was 2.59; in test [4], 2.73. In test [5], the “minimal amount of gp41 detected” value is above 10 ng/mL.

B5: anti-PEP3 mAb 3A2 (antibody, V domains shown)
VH: QVQLQQPGAELVKPGASVKLSCKASGYIFTNYWMHWVRQRPGQGPEWIGMIHPNRGDLHYSEKFNNKATLTVDKSSSTAYMQLNSLASEDSAVYFCARAGLGVFDYWGQGSTLTVSS
VL: DVVMTQTPLSLPVSLGDQVSMSCRSSQSIEHSNRNTYLEWYLHKPGQAPQLLIYGVSNRFTGVPDRFSGSGSGTDFTLKISRVEAEDMGVYHCLQGTHVPFTFGSGTKLEIK
Take B5: the ELISA screening signal in test [1] turned out to be 2.75; in test [2], 2.63; in test [3] it was 3.06; in test [4], 2.93. For the same molecule, in test [5], the “minimal amount of gp41 detected” value was around 1 ng/mL.

B6: anti-PEP3 mAb 9B12 (antibody, V domains shown)
VH: QVQLQQSGPELVKPGASVKISCKASGYGFSDSWMNWVKQRPGKGLDWIGRIYPGDGDTDYNGKFKDKATLTADKSSTTAYMQLSSLTSEDSAVYFCAYLGHWGQGTLVTVSA
VL: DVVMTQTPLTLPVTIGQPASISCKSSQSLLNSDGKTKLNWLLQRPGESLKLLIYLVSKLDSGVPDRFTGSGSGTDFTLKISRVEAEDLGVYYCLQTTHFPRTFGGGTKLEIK
For the molecule B6, the ELISA screening signal in test [1] is 0.047; in test [2] it was 0.054; in test [3], 2.78; in test [4], 2.79.

The values are drawn from US20220281959A1 (DIACCURATE, published 2022).
